Measurements: publication PMC6468047, “Cannabinoid CB1 and CB2 Receptor-Mediated Arrestin Translocation: Species, Subtype, and Agonist-Dependence” (Frontiers in Pharmacology, 2019)

Columns and labels:
CB2 (hCB2) [1] = biological target: T1, CB2 (hCB2) (Homo sapiens, UniProt P34972); assay: BRET human β-arrestin-2 plasma membrane translocation; format: cell-based; details: read-out: CB2 / logEC50 ± SEM (converted)
T1 construct: gene CNR2; 3HA-hCB2 in pEF4a: N-terminal 3xHA tag, untagged C-terminus; transient in HEK-293 with Rluc8-arrestin and mem-linker-Citrine reporters
T1 sequence (P34972 whole entry): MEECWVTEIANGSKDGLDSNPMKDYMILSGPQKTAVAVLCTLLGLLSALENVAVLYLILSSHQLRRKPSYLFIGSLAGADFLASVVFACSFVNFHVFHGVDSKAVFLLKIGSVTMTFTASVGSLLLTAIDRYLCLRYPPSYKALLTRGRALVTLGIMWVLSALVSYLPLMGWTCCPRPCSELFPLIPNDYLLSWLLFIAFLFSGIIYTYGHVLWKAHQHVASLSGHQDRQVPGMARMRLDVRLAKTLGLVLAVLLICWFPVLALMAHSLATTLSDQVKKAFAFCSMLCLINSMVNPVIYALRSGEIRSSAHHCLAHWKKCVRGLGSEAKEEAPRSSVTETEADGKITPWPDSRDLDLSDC

CB2 (hCB2) [2] = biological target: T1, CB2 (hCB2); assay: BRET human β-arrestin-1 plasma membrane translocation; format: cell-based; details: 10 µM; HEK-293, 37 °C, single concentration 10 μM, no GRK2 co-expression
Description: BRET human β-arrestin-1 plasma membrane translocation on CB2 (hCB2)

[3] = biological target: human D2 dopamine receptor (3HA-hD2R) (human) (UniProt P14416)
human D2 dopamine receptor (3HA-hD2R) (human), sequence (P14416 whole entry): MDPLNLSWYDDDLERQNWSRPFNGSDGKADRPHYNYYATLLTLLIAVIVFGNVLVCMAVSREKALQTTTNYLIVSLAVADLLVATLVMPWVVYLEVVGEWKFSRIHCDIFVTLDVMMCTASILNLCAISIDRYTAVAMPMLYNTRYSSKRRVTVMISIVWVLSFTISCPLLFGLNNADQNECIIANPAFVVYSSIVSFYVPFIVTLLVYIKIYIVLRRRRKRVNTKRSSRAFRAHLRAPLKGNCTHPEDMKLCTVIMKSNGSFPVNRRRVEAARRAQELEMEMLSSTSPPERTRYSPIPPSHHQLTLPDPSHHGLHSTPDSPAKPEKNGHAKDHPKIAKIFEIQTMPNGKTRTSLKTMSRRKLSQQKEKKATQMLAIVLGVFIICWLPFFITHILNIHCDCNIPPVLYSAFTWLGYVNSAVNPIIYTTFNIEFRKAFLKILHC

[4] = biological target: human vasopressin receptor 2 (3HA-hV2R) (human) (UniProt P30518)
[5] = biological target: human cannabinoid receptor 1 (pplss-3HA-hCB1) (human) (UniProt P21554)
human cannabinoid receptor 1 (pplss-3HA-hCB1) (human), sequence (P21554 whole entry): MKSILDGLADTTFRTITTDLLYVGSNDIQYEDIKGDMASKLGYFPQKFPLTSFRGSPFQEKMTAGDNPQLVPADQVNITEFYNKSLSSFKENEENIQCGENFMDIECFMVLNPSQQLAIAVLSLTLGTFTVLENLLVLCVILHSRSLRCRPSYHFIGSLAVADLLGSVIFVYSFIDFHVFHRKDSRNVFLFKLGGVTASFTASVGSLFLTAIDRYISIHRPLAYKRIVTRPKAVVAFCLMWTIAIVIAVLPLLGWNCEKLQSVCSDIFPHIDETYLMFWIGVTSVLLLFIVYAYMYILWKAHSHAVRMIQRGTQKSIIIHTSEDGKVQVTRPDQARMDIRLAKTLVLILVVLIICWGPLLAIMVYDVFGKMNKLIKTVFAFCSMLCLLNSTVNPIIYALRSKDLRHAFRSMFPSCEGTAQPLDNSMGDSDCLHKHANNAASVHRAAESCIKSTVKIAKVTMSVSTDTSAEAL

[6] = biological target: human cannabinoid receptor 2 (3HA-hCB2) (human) (UniProt P34972)
human cannabinoid receptor 2 (3HA-hCB2) (human), sequence (P34972 whole entry): as the sequence (P34972 whole entry) above

bovine β-arrestin-1 (Rluc8-bβ-arrestin-1-Sp1), sequence (P17870 whole entry): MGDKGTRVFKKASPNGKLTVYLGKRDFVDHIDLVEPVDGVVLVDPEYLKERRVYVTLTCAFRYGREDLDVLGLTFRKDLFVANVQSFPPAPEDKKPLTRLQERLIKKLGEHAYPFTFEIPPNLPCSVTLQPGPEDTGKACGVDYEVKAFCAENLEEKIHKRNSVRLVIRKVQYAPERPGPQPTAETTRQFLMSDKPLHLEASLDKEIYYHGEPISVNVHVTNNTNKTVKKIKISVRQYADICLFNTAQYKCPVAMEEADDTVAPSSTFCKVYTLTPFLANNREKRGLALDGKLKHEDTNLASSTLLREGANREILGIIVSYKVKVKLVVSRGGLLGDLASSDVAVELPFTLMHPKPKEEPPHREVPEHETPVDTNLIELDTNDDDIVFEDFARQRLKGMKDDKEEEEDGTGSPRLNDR

Compound: CCCCC/C=C\C/C=C\C/C=C\C/C=C\CCCC(=O)OC(CO)CO [2-AG]
- EC50 (CB2 (hCB2) [1]): 1.86 µM

Compound: CCCCCc1cc(O)c2c(c1)OC(C)(C)[C@@H]1CCC(C)=C[C@@H]21 [THC]
- CB2 / Response ± SEM (ΔBRET.sec) (CB2 (hCB2) [2]): 14.4 ± 2.8 ΔBRET.sec

Compound: bovine β-arrestin-1 (Rluc8-bβ-arrestin-1-Sp1) (from UniProt P17870 1-418) (natural protein)
- Response, arrestin translocation to the plasma membrane (BRET, AUC of 25 min); 10 μM dopamine [3]: 23.4 ΔBRET.sec
- Response, arrestin translocation to the plasma membrane (BRET, AUC of 25 min); 10 μM dopamine; GRK2 co-expressed [3]: 95 ΔBRET.sec
- Emax, arrestin translocation to the plasma membrane (BRET, AUC of 25 min); agonist AVP [4]: 177 ΔBRET.sec
- Response, arrestin translocation to the plasma membrane (BRET, AUC of 25 min); 1 μM CP55,940 (significantly different from vehicle) [5]: 20.8 ΔBRET.sec
- Response, arrestin translocation to the plasma membrane (BRET, AUC of 25 min); 1 μM CP55,940; GRK2 co-expressed (significantly different from vehicle) [5]: 44.4 ΔBRET.sec
- Response, arrestin translocation to the plasma membrane (BRET, AUC of 25 min); 10 μM AEA (no significant response) [5]: 6.9 ΔBRET.sec
- Response, arrestin translocation to the plasma membrane (BRET, AUC of 25 min); 10 μM BAY (no significant response) [5]: 0.7 ΔBRET.sec
- Response, arrestin translocation to the plasma membrane (BRET, AUC of 25 min); 10 μM THC (no significant response) [5]: 6.5 ΔBRET.sec
- Response, arrestin translocation to the plasma membrane (BRET, AUC of 25 min); 10 μM WIN55,212-2 (significantly different from vehicle) [5]: 48.5 ΔBRET.sec
- Response, arrestin translocation to the plasma membrane (BRET, AUC of 25 min); 31.6 μM 2-AG (significantly different from vehicle) [5]: 33.7 ΔBRET.sec
- Response, arrestin translocation to the plasma membrane (BRET, AUC of 25 min); 31.6 μM 2-AG; GRK2 co-expressed (significantly different from vehicle) [5]: 49.1 ΔBRET.sec
- Response, arrestin translocation to the plasma membrane (BRET, AUC of 25 min); 1 μM CP55,940 (significantly different from vehicle) [6]: 21.5 ΔBRET.sec
- Response, arrestin translocation to the plasma membrane (BRET, AUC of 25 min); 1 μM CP55,940; GRK2 co-expressed (significantly different from vehicle) [6]: 29 ΔBRET.sec
- Response, arrestin translocation to the plasma membrane (BRET, AUC of 25 min); 10 μM JWH-015 (not significantly different from vehicle) [6]: 14.2 ΔBRET.sec
- Response, arrestin translocation to the plasma membrane (BRET, AUC of 25 min); 10 μM JWH-133 (not significantly different from vehicle) [6]: 7.4 ΔBRET.sec
- Response, arrestin translocation to the plasma membrane (BRET, AUC of 25 min); 10 μM THC (not significantly different from vehicle) [6]: 10.8 ΔBRET.sec
- Response, arrestin translocation to the plasma membrane (BRET, AUC of 25 min); 10 μM WIN55,212-2 (significantly different from vehicle) [6]: 22.2 ΔBRET.sec
- Response, arrestin translocation to the plasma membrane (BRET, AUC of 25 min); 31.6 μM 2-AG (not significantly different from vehicle) [6]: 14.2 ΔBRET.sec
- Response, arrestin translocation to the plasma membrane (BRET, AUC of 25 min); 31.6 μM 2-AG; GRK2 co-expressed (significantly different from vehicle) [6]: 17.5 ΔBRET.sec
